Laboratory results published in article PMC7069805.

Target: MD39 stabilized gp140 HIV Env trimer (HIV)
Test: SEC-MALS

MD39 stabilized gp140 HIV Env trimer (domain or fragment)
stoichiometry N: 3
